Literature values in patent publication US20200069786A1, “COMPOSITION AND PROCESS FOR PREPARING VACCINE” (TREOS BIO ZRT., priority 2018, published 2020).
Where two headings read alike, the source gives them in different places.

Test system: TSA
Settings: cited from earlier work
[1] = TSA expression rate in Esophageal
[2] = TSA expression rate in HEAD and NECK
[3] = TSA expression rate in LUNG cancer
[4] = TSA expression rate in MELANOMA
[5] = TSA expression rate in PROSTATE cancer
[6] = TSA expression rate in BLADDER cancer
[7] = TSA expression rate in Cervical cancer
[8] = TSA expression rate in GASTRIC cancer
[9] = TSA expression rate in PEDIATRIC
[10] = TSA expression rate in LEUKEMIAS

Substance: BAGE-1 (RLMKEESPVVSWRLEPEDGTALCFIF; UniProt Q13072 18-43, looked up)
- TSA Expression Rate (ER) (BREAST): 9%
- Expression Rate (ER) % (TSA expression rate in CRC): 0%
- Expression Rate (ER) % [1]: 6%
- Expression Rate (ER) % [2]: 6%
- Expression Rate (ER) % (TSA expression rate in Kidney): 0%
- Expression Rate (ER) % [3]: 10%
- Expression Rate (ER) % [4]: 26%
- Expression Rate (ER) % [5]: 0%

Substance: BAGE-5 (RLMKEESPVVSWRLEPEDGTALCFIF; UniProt Q86Y27 18-43, looked up)
- Expression Rate (ER) % [4]: 9%

Substance: CASC5
- TSA Expression Rate (ER) (LUNG): 41%
- TSA Expression Rate (ER) (PANCREATIC): 27%

Substance: CDCA1
- TSA Expression Rate (ER) (BREAST): 64%
- TSA Expression Rate (ER) (HCC): 100%
- TSA Expression Rate (ER) (LUNG): 85%
- Expression Rate (ER) % [6]: 100%
- Expression Rate (ER) % (TSA expression rate in CRC): 40%
- Expression Rate (ER) % [7]: 18%
- Expression Rate (ER) % [1]: 22%
- Expression Rate (ER) % [8]: 0%
- Expression Rate (ER) % (TSA expression rate in Kidney): 100%
- Expression Rate (ER) % [5]: 85%

Substance: DBPC
- TSA Expression Rate (ER) (BREAST): 50%
- TSA Expression Rate (ER) (HCC): 40%
- TSA Expression Rate (ER) (LUNG): 30%
- TSA Expression Rate (ER) (OVARIAN): 20%
- TSA Expression Rate (ER) (PANCREATIC): 60%
- Expression Rate (ER) % (TSA expression rate in CRC): 90%
- Expression Rate (ER) % [8]: 50%
- Expression Rate (ER) % (TSA expression rate in Kidney): 10%
- Expression Rate (ER) % [5]: 40%

Substance: DCAF12
- TSA Expression Rate (ER) (LUNG): 89%
- Expression Rate (ER) % [5]: 59%

Substance: DKK1
- TSA Expression Rate (ER) (PANCREATIC): 84%

Substance: DMRT1
- Expression Rate (ER) % [5]: 24%

Substance: EPHA2
- TSA Expression Rate (ER) (BRAIN): 95%
- Expression Rate (ER) % [9]: 100%

Substance: EZH2
- TSA Expression Rate (ER) (BRAIN): 100%

Substance: JARID1B
- TSA Expression Rate (ER) (BREAST): 76%
- TSA Expression Rate (ER) (HCC): 29%
- TSA Expression Rate (ER) (LUNG): 55%
- TSA Expression Rate (ER) (OVARIAN): 71%
- Expression Rate (ER) % [10]: 60%
- Expression Rate (ER) % [4]: 100%
- Expression Rate (ER) % [5]: 100%

Substance: LDHC
- TSA Expression Rate (ER) (BREAST): 35%
- TSA Expression Rate (ER) (LUNG): 29%
- TSA Expression Rate (ER) (OVARIAN): 43%
- TSA Expression Rate (ER) (THYROID): 25%
- Expression Rate (ER) % (TSA expression rate in CRC): 15%
- Expression Rate (ER) % [7]: 83%
- Expression Rate (ER) % [2]: 0%
- Expression Rate (ER) % (TSA expression rate in Kidney): 57%
- Expression Rate (ER) % [4]: 44%
- Expression Rate (ER) % [5]: 38%

Substance: MAGE-A10
- TSA Expression Rate (ER) (BREAST): 34%
- TSA Expression Rate (ER) (HCC): 15%
- TSA Expression Rate (ER) (LUNG): 24%
- TSA Expression Rate (ER) (OVARIAN): 38%
- TSA Expression Rate (ER) (PANCREATIC): 1%
- TSA Expression Rate (ER) (THYROID): 2%
- Expression Rate (ER) % [6]: 28%
- Expression Rate (ER) % (TSA expression rate in CRC): 3%
- Expression Rate (ER) % [7]: 0%
- Expression Rate (ER) % [1]: 27%
- Expression Rate (ER) % [8]: 30%
- Expression Rate (ER) % [2]: 12%
- Expression Rate (ER) % (TSA expression rate in Kidney): 1%
- Expression Rate (ER) % [10]: 0%
- Expression Rate (ER) % [4]: 45%
- Expression Rate (ER) % [9]: 33%
- Expression Rate (ER) % [5]: 10%

Substance: MPHOSPH1
- Expression Rate (ER) % [6]: 90%

Substance: MSLN
- TSA Expression Rate (ER) (PANCREATIC): 96%

Substance: MUC-1
- Expression Rate (ER) % [5]: 34%

Substance: NKX3.1
- TSA Expression Rate (ER) (THYROID): 0%
- Expression Rate (ER) % [5]: 70%

Substance: OIP5
- Expression Rate (ER) % [8]: 48%
- Expression Rate (ER) % [2]: 12%

Substance: PRAME
- TSA Expression Rate (ER) (BRAIN): 56%
- TSA Expression Rate (ER) (BREAST): 49%
- TSA Expression Rate (ER) (LUNG): 63%
- TSA Expression Rate (ER) (OVARIAN): 59%
- TSA Expression Rate (ER) (THYROID): 60%
- Expression Rate (ER) % [6]: 19%
- Expression Rate (ER) % (TSA expression rate in CRC): 4%
- Expression Rate (ER) % [8]: 21%
- Expression Rate (ER) % [2]: 61%
- Expression Rate (ER) % (TSA expression rate in Kidney): 40%
- Expression Rate (ER) % [10]: 23%
- Expression Rate (ER) % [4]: 90%
- Expression Rate (ER) % [9]: 75%
- Expression Rate (ER) % [5]: 10%

Substance: SOX-6
- TSA Expression Rate (ER) (BRAIN): 60%

Substance: SPINLW1
- TSA Expression Rate (ER) (BRAIN): 47%

Substance: SSX-1
- TSA Expression Rate (ER) (BRAIN): 0%
- TSA Expression Rate (ER) (BREAST): 9%
- TSA Expression Rate (ER) (HCC): 69%
- TSA Expression Rate (ER) (OVARIAN): 2%
- TSA Expression Rate (ER) (PANCREATIC): 0%
- TSA Expression Rate (ER) (THYROID): 0%
- Expression Rate (ER) % [6]: 7%
- Expression Rate (ER) % (TSA expression rate in CRC): 2%
- Expression Rate (ER) % [7]: 4%
- Expression Rate (ER) % [1]: 0%
- Expression Rate (ER) % [8]: 13%
- Expression Rate (ER) % [2]: 40%
- Expression Rate (ER) % (TSA expression rate in Kidney): 0%
- Expression Rate (ER) % [10]: 31%
- Expression Rate (ER) % [3]: 8%
- Expression Rate (ER) % (TSA expression rate in LYMPHOMAS): 6%
- Expression Rate (ER) % [4]: 25%
- Expression Rate (ER) % [9]: 76%
- Expression Rate (ER) % [5]: 7%

Substance: SSX-7
- TSA Expression Rate (ER) (BRAIN): 0%

Substance: SYCE1
- Expression Rate (ER) % [3]: 11%

Substance: TDRD4
- TSA Expression Rate (ER) (HCC): 14%

Substance: TEX15
- TSA Expression Rate (ER) (BREAST): 0%
- TSA Expression Rate (ER) (LUNG): 21%
- TSA Expression Rate (ER) (THYROID): 0%
- Expression Rate (ER) % [6]: 21%
- Expression Rate (ER) % (TSA expression rate in CRC): 0%
- Expression Rate (ER) % [1]: 20%
- Expression Rate (ER) % [2]: 11%
- Expression Rate (ER) % (TSA expression rate in Kidney): 33%
- Expression Rate (ER) % [4]: 27%
- Expression Rate (ER) % [5]: 13%

Substance: TSGA10
- TSA Expression Rate (ER) (BRAIN): 83%
- TSA Expression Rate (ER) (BREAST): 70%
- TSA Expression Rate (ER) (HCC): 20%
- TSA Expression Rate (ER) (OVARIAN): 35%
- Expression Rate (ER) % [6]: 38%
- Expression Rate (ER) % (TSA expression rate in CRC): 5%
- Expression Rate (ER) % [4]: 25%
- Expression Rate (ER) % [5]: 15%

Substance: WT1
- TSA Expression Rate (ER) (BRAIN): 81%
- TSA Expression Rate (ER) (BREAST): 7%
- TSA Expression Rate (ER) (HCC): 86%
- TSA Expression Rate (ER) (OVARIAN): 63%
- TSA Expression Rate (ER) (PANCREATIC): 72%
- TSA Expression Rate (ER) (THYROID): 97%
- Expression Rate (ER) % (TSA expression rate in CRC): 91%
- Expression Rate (ER) % [7]: 5%
- Expression Rate (ER) % [1]: 88%
